Results: paper PMC8160579 (The Journal of Cell Biology, 2021)
Where no end group is shown, it is not given here.

B2: biotinylated SAMM50 LIR peptide (residues 18–41) (peptide)
peptide: DFGGLGEEAEFVEVEPEAKQEILE
modifications: also: biotinylated, position not given here

How the values were obtained:
[1] = target: GST-GABARAP Y49A (human, UniProt O95166 1-117, Y49A); assay: pull-down
[2] = target: LC3A, purified (human, UniProt Q9H492 1-121); assay: BLI
[3] = target: GABARAPL1, purified (human, UniProt Q9H0R8 1-117); assay: BLI
Chain of GABARAPL1, purified (Q9H0R8 whole entry): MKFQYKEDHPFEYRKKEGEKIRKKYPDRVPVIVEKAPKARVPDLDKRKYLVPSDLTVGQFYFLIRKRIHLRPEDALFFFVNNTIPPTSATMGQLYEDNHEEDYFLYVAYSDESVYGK

[4] = target: GABARAP, purified (human, UniProt O95166 1-117); assay: BLI
Chain of GABARAP, purified (O95166 whole entry): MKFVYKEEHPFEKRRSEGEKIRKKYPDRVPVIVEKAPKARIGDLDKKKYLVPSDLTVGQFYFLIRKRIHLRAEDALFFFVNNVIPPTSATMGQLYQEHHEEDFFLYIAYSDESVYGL

[5] = target: LC3C, purified (human, UniProt Q9BXW4 1-126); assay: BLI
Chain of LC3C, purified (Q9BXW4 1-126): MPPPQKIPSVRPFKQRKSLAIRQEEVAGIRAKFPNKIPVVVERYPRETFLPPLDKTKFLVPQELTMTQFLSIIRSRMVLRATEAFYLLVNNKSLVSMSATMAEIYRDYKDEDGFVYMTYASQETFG

[6] = target: B2; assay: BLI

B1: Myc-SAMM50 WT, in vitro translated (natural protein)
chain: MGTVHARSLEPLPSSGPDFGGLGEEAEFVEVEPEAKQEILENKDVVVQHVHFDGLGRTKDDIIICEIGDVFKAKNLIEVMRKSHEAREKLLRLGIFRQVDVLIDTCQGDDALPNGLDVTFEVTELRRLTGSYNTMVGNNEGSMVLGLKLPNLLGRAEKVTFQFSYGTKETSYGLSFFKPRPGNFERNFSVNLYKVTGQFPWSSLRETDRGMSAEYSFPIWKTSHTVKWEGVWRELGCLSRTASFAVRKESGHSLKSSLSHAMVIDSRNSSILPRRGALLKVNQELAGYTGGDVSFIKEDFELQLNKQLIFDSVFSASFWGGMLVPIGDKPSSIADRFYLGGPTSIRGFSMHSIGPQSEGDYLGGEAYWAGGLHLYTPLPFRPGQGGFGELFRTHFFLNAGNLCNLNYGEGPKAHIRKLAECIRWSYGAGIVLRLGNIARLELNYCVPMGVQTGDRICDGVQFGAGIRFL
reduction in binding relative to WT GABARAP [1]: > 60%

B2
Kd [2]: 27.6 µM
Kd [3]: 10 µM
Kd [4]: 23.9 µM
Kd [5]: 57.2 µM

B3: GABARAP Q59E (natural protein)
chain: MKFVYKEEHPFEKRRSEGEKIRKKYPDRVPVIVEKAPKARIGDLDKKKYLVPSDLTVGEFYFLIRKRIHLRAEDALFFFVNNVIPPTSATMGQLYQEHHEEDFFLYIAYSDESVYGL
fold reduction of binding relative to WT GABARAP [6]: > 3.5 fold
